According to publication PMC11960969, “Mdga2 deficiency leads to an aberrant activation of BDNF/TrkB signaling that underlies autism-relevant synaptic and behavioral changes in mice” (PLOS Biology, 2025):

B1: MDGA2-ΔM1: MDGA2 lacking the N-terminal region (aa 746–833) of MAM domain (protein)
chain: PPTVRIVHSGLACNIEEERYSERVYTIREGETLELTCLVTGHPRPQIRWTKTAGSASDRFQDSSVFNETLRITNIQRHQGGRYYCKAENGLGSPAIKSIRVDVYYLDDPVVTVHQSIGEAKEQFYYERTVFLRCVANSNPPVRYSWRRGQEVLLQGSDKGVEIYEPFFTQGETKILKLKNLRPQDYANYSCIASVRNVCNIPDKMVSFRLSNKTASPSIKLLVDDPIVVNPGEAITLVCVTTGGEPAPSLTWVRSFGTLPEKTVLNGGTLTIPAITSDDAGTYSCIANNNVGNPAKKSTNIIVRALKKGRFWITPDPYHKDDNIQIGREVKISCQVEAVPSEELTFSWFKNGRPLRSSERMVITQTDPDVSPGTTNLDIIDLKFTDFGTYTCVASLKGGGISDISIDVNISSSTVPPNLTVPQEKSPLVTREGDTIELQCQVTGKPKPIILWSRADKEVAMPDGSMQMESYDGTLRIVNVSREMSGMYRCQTSQYNGFNVKPREALVQLIVQYPPAVEPAFLEIRQGQDRSVTMSCRVLRAYPIRVLTYEWRLGNKLLRTGQFDSQEYTEYAVKSLSNENYGVYNCSIINEAGAGRCSFLVTGKAYAPEFYYDTYNPVWQNRHRVYSYSLQWTQMNPDAVDRIVAYRLGIRQAGQQRWWEQEIKINGNIQKGELITYNLTELIKPEAYEVRLTPLTKFGEGDSTIRVIKYSAPVNPHLREAYCFSFFYHMYGQHIGVLNVYLRLKGQTTIENPLWSSSGNKGQRWNEAHVNIYPITSFQLIFEGIRGPGIEGDIAIDDVSIAEGECAKQDLATKNSVD
modifications: left off: GFP, end not stated, kept
notes: MDGA2 lacking the N-terminal region (aa 746–833) of MAM domain
B2: MDGA2-ΔM2: MDGA2 lacking the C-terminal region (aa 834–921) of MAM domain (protein)
chain: PPTVRIVHSGLACNIEEERYSERVYTIREGETLELTCLVTGHPRPQIRWTKTAGSASDRFQDSSVFNETLRITNIQRHQGGRYYCKAENGLGSPAIKSIRVDVYYLDDPVVTVHQSIGEAKEQFYYERTVFLRCVANSNPPVRYSWRRGQEVLLQGSDKGVEIYEPFFTQGETKILKLKNLRPQDYANYSCIASVRNVCNIPDKMVSFRLSNKTASPSIKLLVDDPIVVNPGEAITLVCVTTGGEPAPSLTWVRSFGTLPEKTVLNGGTLTIPAITSDDAGTYSCIANNNVGNPAKKSTNIIVRALKKGRFWITPDPYHKDDNIQIGREVKISCQVEAVPSEELTFSWFKNGRPLRSSERMVITQTDPDVSPGTTNLDIIDLKFTDFGTYTCVASLKGGGISDISIDVNISSSTVPPNLTVPQEKSPLVTREGDTIELQCQVTGKPKPIILWSRADKEVAMPDGSMQMESYDGTLRIVNVSREMSGMYRCQTSQYNGFNVKPREALVQLIVQYPPAVEPAFLEIRQGQDRSVTMSCRVLRAYPIRVLTYEWRLGNKLLRTGQFDSQEYTEYAVKSLSNENYGVYNCSIINEAGAGRCSFLVTGKAYAPEFYYDTYNPVWQNRHRVYSYSLQWTQMNPDAVDRIVAYRLGIRQAGQQRWWEQEIKINGNIQKGELITYNLTELIKPEAYEVRLTPLTKFGEGDSTIRVIKYSAPVNPHLREFHCGFEDGNICLFTQDDTDNFDWTKQSTATRNTKYTPNTGPNADRSGSKEGFYMYIETSRPRLEGEKARLLSPVFSIAPKNPYGPTNTQDLATKNSVD
modifications: left off: GFP, end not stated, kept
notes: MDGA2 lacking the C-terminal region (aa 834–921) of MAM domain

Test system: TrkB (TrkB-Flag)
Assay: Co-IP of MDGA2 and its truncations with TrkB-Flag in HEK293T cells
Format: binding, human
Conditions: HEK293T cells co-transfected with TrkB-Flag and GFP-tagged MDGA2 constructs
Protocol: Fig 3 MDGA2 interacts with TrkB and suppresses TrkB activity. (A) Primary hippocampal neurons derived from Mdga2^ +/− (Het) mice and their wild-type (WT) littermates at DIV 7 were treated with different doses of BDNF for 30 min. Equal amounts of protein lysates were subjected to immunoprecipitation (IP) with an anti-TrkB antibody, followed by immunoblotting with an anti-phosphotyrosine (pTyr) antibody or the anti-TrkB antibody. The pTyr levels were quantified by densitometry, normalized to total TrkB levels, and then compared to those of WT controls. n = 3 per group. (B) WT mouse brain lysates were subjected to IP with an anti-MDGA2 antibody and a control IgG, and immunoblotted (IB) for the components indicated. mBDNF, mature BDNF; ImBDNF, immature BDNF. (C) Hippocampal neurons from WT mice at DIV 7 were immunostained with antibodies against MDGA2 (red) and TrkB (green), and then counter-stained with DAPI (blue). Images were acquired by a confocal microscope. Scale bar: 10 μm. (D) Surface plasmon resonance (SPR) analysis of the binding between recombinant MDGA2 protein and recombinant TrkB protein. TrkB was immobilized on a Biacore CM5 chip and tested for its binding with MDGA2 at the concentrations indicated. (E) Computer simulation of the binding mode of TrkB and MDGA2. The predicted binding domain of TrkB (the d5 domain) is highlighted by a red square and labeled in brown. The predicted binding domain of MDGA2 (the MAM domain) is highlighted by a red square and labeled in yellow. […] Immunoprecipitated TrkB levels were quantified by densitometry, normalized to input levels, and compared to respective controls (set to one arbitrary units). n = 3 per group. […] Levels of phosphorylated proteins were quantified by densitometry, normalized to respective total protein levels and compared to controls (set to one arbitrary units). n = 6 per group. […] P-values were determined by two-tailed unpaired Student t-test in (A) and one-way ANOVA with Tukey’s multiple comparisons test in (H, I, J). *p < 0.05, **p < 0.01, ***p < 0.001, ns: not significant. […]

Molecule | interaction with TrkB (Co-IP)
B1 | abolished the interaction between MDGA2 and TrkB
B2 | not M2 abolished the interaction
